In article PMC5424161:

Settings: O-GlcNAc at T241

YAP (Yes-associated protein): T241A
degradation_or_half_life: decreases | other: increases

YAP (Yes-associated protein): OGT knockdown (shRNA)
degradation_or_half_life: decreases
